Here are results for nine molecules from patent US20160096866A1 (University of Pennsylvania, published 2016).

Assay [1] deals with T1, complement component C3 (human, UniProt P01024 23-1663, limits assumed). As to the kind of experiment: cell-based or functional assay.
Assay [2] deals with T1, complement component C3. As to the kind of experiment: cell-based or functional assay. The source holds these as a separate data set.
In assay [3] the target is T1, complement component C3. As to the kind of experiment: cell-based or functional assay. This is another data set of the same source.
The target in assay [4] is T1, complement component C3. Put plainly: ITC; relative to the row 'Wild-type'. How it is done:
Isothermal titration calorimetry experiments were performed using the Microcal VP-ITC calorimeter (Microcal Inc, Northampton, Mass.). Protein concentrations of 3.5-5 μM and peptide concentrations of 80-200 μM were used for these experiments. All titrations were performed in PBS (10 mM phosphate buffer with 150 mM NaCl, pH 7.4). In each experiment, the target protein, C3, was loaded into the cell, and peptide was loaded into the syringe. All experiments were performed at 25° C. and for each experiment, 2-μl peptide injections were made into the cell containing the protein. In each experiment, the raw isotherms were corrected for the heats of dilution by subtracting the isotherms representing peptide injections into the buffer. The resulting isotherms were fit to various models within the Origin 7.0 software, and the model that achieved the lowest chi square value was deemed to be appropriate for the respective dataset. Binding affinity and entropy values were plotted against log P values.
The calorimetric data obtained for the interaction of all the peptides with C3 fit to a one set of sites model with stoichiometry close to 1 (FIG. 4). […] As per the correlation, binding affinity increases with an increase in the hydrophobicity of the analog incorporated at position 4. This observation is consistent with the correlation shown between log P and the inhibitory constants.
On the technique in general: In ITC the heat of successive injections is recorded.

Like-named read-outs stand apart in the source and are kept apart here. Bridges are numbered along the chain shown (N, C = ends). [ ]: non-standard residue; d: D form. Trp(1-Me) = Cn1cc(C[C@H](N)C(=O)O)c2ccccc21; 2Nal = N[C@@H](Cc1ccc2ccccc2c1)C(=O)O

T1 sequence (P01024 23-1663 limits assumed): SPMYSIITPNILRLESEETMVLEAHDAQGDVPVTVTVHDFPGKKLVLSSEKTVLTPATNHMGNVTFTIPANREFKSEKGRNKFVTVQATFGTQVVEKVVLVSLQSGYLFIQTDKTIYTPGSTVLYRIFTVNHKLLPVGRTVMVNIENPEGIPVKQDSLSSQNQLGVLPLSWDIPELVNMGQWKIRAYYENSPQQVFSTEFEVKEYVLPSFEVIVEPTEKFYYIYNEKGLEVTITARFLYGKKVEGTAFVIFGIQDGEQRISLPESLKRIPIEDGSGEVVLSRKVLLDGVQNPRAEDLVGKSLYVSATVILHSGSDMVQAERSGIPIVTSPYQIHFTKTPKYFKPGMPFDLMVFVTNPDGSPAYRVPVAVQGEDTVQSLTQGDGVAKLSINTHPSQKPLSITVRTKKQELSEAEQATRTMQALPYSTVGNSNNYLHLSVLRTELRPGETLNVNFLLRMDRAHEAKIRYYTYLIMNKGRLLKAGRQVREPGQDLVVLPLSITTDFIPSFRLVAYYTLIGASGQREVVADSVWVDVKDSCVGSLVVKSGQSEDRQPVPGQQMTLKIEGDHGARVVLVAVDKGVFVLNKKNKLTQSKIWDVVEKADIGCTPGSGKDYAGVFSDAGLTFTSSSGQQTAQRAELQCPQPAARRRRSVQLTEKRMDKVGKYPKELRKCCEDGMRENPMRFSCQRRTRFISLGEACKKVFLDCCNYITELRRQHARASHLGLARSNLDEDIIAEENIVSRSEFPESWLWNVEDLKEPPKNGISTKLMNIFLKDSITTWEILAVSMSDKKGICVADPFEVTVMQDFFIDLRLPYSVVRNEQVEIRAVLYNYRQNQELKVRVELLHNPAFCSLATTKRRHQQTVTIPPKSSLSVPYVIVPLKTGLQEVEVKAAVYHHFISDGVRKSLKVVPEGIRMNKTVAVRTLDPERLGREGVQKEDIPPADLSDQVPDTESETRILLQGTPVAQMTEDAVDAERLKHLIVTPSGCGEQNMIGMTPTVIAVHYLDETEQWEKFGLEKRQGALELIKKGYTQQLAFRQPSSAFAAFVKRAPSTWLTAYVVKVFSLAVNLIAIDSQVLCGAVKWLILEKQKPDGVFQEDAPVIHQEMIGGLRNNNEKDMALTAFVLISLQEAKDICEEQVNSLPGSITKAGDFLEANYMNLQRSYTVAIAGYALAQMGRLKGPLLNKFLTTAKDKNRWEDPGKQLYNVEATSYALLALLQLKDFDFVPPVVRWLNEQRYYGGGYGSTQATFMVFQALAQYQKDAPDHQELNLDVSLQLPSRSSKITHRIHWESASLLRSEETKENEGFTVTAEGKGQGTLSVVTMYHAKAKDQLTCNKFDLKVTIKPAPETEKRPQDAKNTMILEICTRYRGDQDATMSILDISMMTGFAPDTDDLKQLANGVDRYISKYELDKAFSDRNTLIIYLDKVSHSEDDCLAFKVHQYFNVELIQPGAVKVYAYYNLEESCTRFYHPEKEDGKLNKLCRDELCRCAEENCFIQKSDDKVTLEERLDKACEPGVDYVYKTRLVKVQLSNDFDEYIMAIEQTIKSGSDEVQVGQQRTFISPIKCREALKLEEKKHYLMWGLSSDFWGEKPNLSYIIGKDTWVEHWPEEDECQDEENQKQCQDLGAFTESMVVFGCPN

In the assay with complement component C3 [1], G(-1)/V4W/H9A/N14 (peptide) gave an Activity over compstatin of 45 fold; an IC50, complement inhibition (C3b/iC3b deposition ELISA, human plasma) of 1200 nM; a Relative activity (to compstatin, SEQ ID NO: 1) of 45 fold.

In the assay with complement component C3 [1], Ac-V4W/7(5-methoxy W)/H9A (peptide) had an IC50, complement inhibition (C3b/iC3b deposition ELISA, human plasma) of 460 nM and a Relative activity (to compstatin, SEQ ID NO: 1) of 0.5 fold.

In the assay with complement component C3 [1], G(-1)/V4(6fW)/W7(6fW)/H9A/N14 (peptide) came in with an Activity over compstatin of 126 fold; an IC50, complement inhibition (C3b/iC3b deposition ELISA, human plasma) of 430 nM; a Relative activity (to compstatin, SEQ ID NO: 1) of 126 fold; a complement inhibitory activity relative to Ac-V4W/H9A of 2.8 fold.

In the assay with complement component C3 [1], G(-1)/V4(5fW)/W7(5fW)/H9A/N14 (peptide) yielded an Activity over compstatin of 112 fold; an IC50, complement inhibition (C3b/iC3b deposition ELISA, human plasma) of 480 nM; a Relative activity (to compstatin, SEQ ID NO: 1) of 112 fold; a complement inhibitory activity relative to Ac-V4W/H9A of 2.5 fold.

As for “G(-1)/V4(7-aza-W)/W7(7-aza-W)/H9A/N14 (peptide)”, in the assay with complement component C3 [1], the IC50, complement inhibition (C3b/iC3b deposition ELISA, human plasma) worked out at 122000 nM and the Relative activity (to compstatin, SEQ ID NO: 1) was found to be 0.44 fold.

For “G(-1)/V4(5-OH-W)/W7(5-OH-W)/H9A/N14 (peptide)”, in the assay with complement component C3 [1], the IC50, complement inhibition (C3b/iC3b deposition ELISA, human plasma) is 33000 nM; the Relative activity (to compstatin, SEQ ID NO: 1) came out at 1.6 fold; the loss of complement inhibitory activity relative to Ac-V4W/H9A was determined as 27.5 fold.

B1: Ac-V4(1-methyl-W)/H9A-K-PEG 5000 (peptide)
peptide: ICVWQDWGAHRCTK
modifications: N-terminal acetyl; 1-methyltryptophan at position 4; lysine added at the C-terminus with PEG 5000 linked to its side chain
In the case of B1, the “amount needed for the same complement inhibition as Ac-V4(1-methyl-W)/H9A” value with complement component C3 [2] was found to be 7 fold.

B2: 4(1MeW)-ABP (peptide)
peptide: Ac-ICV[Trp(1-Me)]QDWGAHRCTRLIEDICLPRWGCLWEDD-NH2
modifications: disulfide 2-12, 20-26
On to B2, for which the “amount needed for the same complement inhibition as Ac-V4(1-methyl-W)/H9A” value with complement component C3 [2] was 7 fold.

B3: Ac-V4(2-Nal)/H9A (peptide)
peptide: Ac-ICV[2Nal]QDWGAHRCT-NH2
modifications: disulfide 2-12
SMILES: CC[C@H](C)[C@H](NC(C)=O)C(=O)N[C@H]1CSSC[C@@H](C(=O)N[C@H](C(N)=O)[C@@H](C)O)NC(=O)[C@H](CCCNC(=N)N)NC(=O)[C@H](Cc2c[nH]cn2)NC(=O)[C@H](C)NC(=O)CNC(=O)[C@H](Cc2c[nH]c3ccccc23)NC(=O)[C@H](CC(=O)O)NC(=O)[C@H](CCC(N)=O)NC(=O)[C@H](Cc2ccc3ccccc3c2)NC(=O)[C@H](C(C)C)NC1=O
notes: also called Ac-V4(2-Nal)/W7/H9A
B3: the “IC50, complement inhibition (C3b/iC3b deposition ELISA, human plasma)” value in the assay with complement component C3 [3] came out at 545 nM. Moreover, in the assay with complement component C3 [4], the “-TΔΔS” value is -3.99 kcal/mol, the ΔΔG was -0.1 kcal/mol and the ΔΔH was found to be 3.87 kcal/mol.
